The results in this text go back to the RNAGym collection of RNA variant scans (doi:10.1093/nar/gkz1192).

B1: CPEB3 Ribozyme (parent)
chain: UAACAGGGGGCCACAGCAGAAGCGUUCACGUCGCAGCCCCUGUCAGAUUCUGGUGAAUCUGCGAAUUCUGCUGUAUAUCUC

Variants of B1 are the subject of this data set. Put plainly: self-cleavage, relative activity (ratio to wild type); higher = more cleavage; in vitro, sequencing. In a few lines:
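For each CPEB3 ribozyme variant, relative activity is its cleaved/total read fraction divided by the unmutated ribozyme's. Barcoded error-prone PCR libraries were transcribed by T7 RNA polymerase (5 hours, 37°C) and held in DNase I for 15 min before an EDTA stop, with cleavage occurring throughout. Template-switching reverse transcription and Illumina sequencing were used to read the RNAs. A 5-read minimum applied, and results are the mean of three batches.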
UAACAGGGGGCCACAGCAGAAGCGUCCACGUCGCAGCCCCUGUCAGAUUCUGGUGAAUCUGCGAAUUCUGCUUUAUAUCUC: the self-cleavage amounted to 1.
With UAACAGGGGGCCACAGCAGAAGCGUCCACGUCGCAGCCCCUGUCAGAUUCUGGUGAAUCUGCGAAUUCUGCUAUAUAUCUC, the self-cleavage was 0.99.
For the variant UAACAGGGGGCCACAGCAGAAGCGUCCACGUCGCAGCCCCUGUCAGAUUCUGGUAAAUCUGCGAAUUCUGCUGUAUAUCUC, the self-cleavage amounted to 0.43.
As to UAACAGGGGGCCACAGCAGAAGCGUCCACGUCGCAGCCCCUGUCAGAUUCUGGUCAAUCUGCGAAUUCUGCUGUAUAUCUC, the self-cleavage came to 0.33.
On to UAACAGGGGGCCACAGCAGAAGCGUCCACGUCGCAGCCCCUGUCAGAUUCUGAUGAAUCUGCGAAUUCUGCUGUAUAUCUC, for which the self-cleavage is 0.51.
As for UAACAGGGGGCCACAGCAGAAGCGUCCACGUCGCAGCCCCUGUCAGAUUCUGGUGAAUCUGCGAAAUCUGCUGUAUAUCUC, the figure is 0.23; as for UAACAGGGGGCCACAGCAGAAGCGUCCACGUCGCAGCCCCUGUCAGAUUCUGGUGAAUCUGCGAAGUCUGCUGUAUAUCUC, 0.21; as for UAACAGGGGGCCACAGCAGAAGCGUCCACGUCGCAGCCCCUGUCAGAUUCUGGUGAAUCUGCGAACUCUGCUGUAUAUCUC, 0.26.
For the variant UAACAGGGGGCCACAGCAGAAGCGUCCACGUCGCAGCCCCUGUCAGAUUCUGGCGAAUCUGCGAAUUCUGCUGUAUAUCUC, the self-cleavage amounted to 0.44.
For the variant UAACAGGGGGCCACAGCAGAAGCGUCCACGUCGCAGCCCCUGUCAGAUUCUGGGGAAUCUGCGAAUUCUGCUGUAUAUCUC, the self-cleavage amounted to 0.27.
For UAACAGGGGGCCACAGCAGAAGCGUCCACGUCGCAGCCCCUGUCAGAUUCUGGAGAAUCUGCGAAUUCUGCUGUAUAUCUC, the self-cleavage came out at 0.5.
With UAACAGGGGGCCACAGCAGAAGCGUCCACGUCGCAGCCCCUGUCAGAUUCCGGUGAAUCUGCGAAUUCUGCUGUAUAUCUC, the self-cleavage worked out at 0.44.
As to UAACAGGGGGCCACAGCAGAAGCGUCCACGUCGCAGCCCCUGUCAGAUUCGGGUGAAUCUGCGAAUUCUGCUGUAUAUCUC, the self-cleavage worked out at 0.46.
As to UAACAGGGGGCCACAGCAGAAGCGUCCACGUCGCAGCCCCUGUCAGAUUCAGGUGAAUCUGCGAAUUCUGCUGUAUAUCUC, the self-cleavage amounted to 0.43.
As to UAACAGGGGGCCACAGCAGAAGCGUCCACAUCGCAGCCCCUGUCAGAUUCUGGUGAAUCUGCGAAUUCUGCUGUAUAUCUC, the self-cleavage was 0.27.
Consider UAACAGGGGGCCACAGCAGAAGCGUCCACUUCGCAGCCCCUGUCAGAUUCUGGUGAAUCUGCGAAUUCUGCUGUAUAUCUC, for which the self-cleavage worked out at 0.16.
As for UAACAGGGGGCCACAGCAGAAGCGUCCACGUCGCAGCCCCUGCCAGAUUCUGGUGAAUCUGCGAAUUCUGCUGUAUAUCUC, the figure is 0.77.
For UAACAGGGGGCCACAGCAGAAGCGUCCACGUCGCAGCCCCUGACAGAUUCUGGUGAAUCUGCGAAUUCUGCUGUAUAUCUC, the self-cleavage was determined as 0.26.
With UAACAGGGGGCCACAGCAGAAGCGUCCACGUCGCAGCCCCUGGCAGAUUCUGGUGAAUCUGCGAAUUCUGCUGUAUAUCUC, the self-cleavage amounted to 0.7.
Regarding UAACAGGGGGCCACAGCAGAAGCGUCCACGUCGCAGCCCCUGUCAGAUUCUGGUGAAACUGCGAAUUCUGCUGUAUAUCUC, the self-cleavage was found to be 0.15.
As to UAACAGGGGGCCACAGCAGAAGCGUCCACGUCGCAGCCCCUGUCAGAUUCUGGUGAAGCUGCGAAUUCUGCUGUAUAUCUC, the self-cleavage came to 0.28.
Turning to UAACAGGGGGCCACAGCAGAAGCGUCCACGUCGCAGCCCCUGUCAGAUUCUGGUGAACCUGCGAAUUCUGCUGUAUAUCUC, the self-cleavage was 0.29.
Turning to UAACAGGGGGCCACAGCAGAAGCGUCCACGACGCAGCCCCUGUCAGAUUCUGGUGAAUCUGCGAAUUCUGCUGUAUAUCUC, the self-cleavage came to 0.27.
In the case of UAACAGGGGGCCACAGCAGAAGCGUCCACGGCGCAGCCCCUGUCAGAUUCUGGUGAAUCUGCGAAUUCUGCUGUAUAUCUC, the self-cleavage came to 0.32.
As to UAACAGGGGGCCACAGCAGAAGCGUCCACGCCGCAGCCCCUGUCAGAUUCUGGUGAAUCUGCGAAUUCUGCUGUAUAUCUC, the self-cleavage stood at 0.35.
With UAACAGGGGGCCACAGCAGAAGCGUCCACGUCGCAGCCCCUGUCAGAUUCUGGUGAAUCUGCGAAUCCUGCUGUAUAUCUC, the self-cleavage came to 0.22.
As to UAACAGGGGGCCACAGCAGAAGCGUCCACGUCGCAGCCCCUGUCAGAUUCUGGUGAAUCUGCGAAUACUGCUGUAUAUCUC, the self-cleavage was determined as 0.24.
On to UAACAGGGGGCCACAGCAGAAGCGUCCACGUCGCAGCCCCUGUCAGAUUCUGGUGAAUCCGCGAAUUCUGCUGUAUAUCUC, for which the self-cleavage turned out to be 0.27.
As to UAACAGGGGGCCACAGCAGAAGCGUCCACGUCGCAGCCCCUGUCAGAUUCUGGUGAAUCAGCGAAUUCUGCUGUAUAUCUC, the self-cleavage was 0.39.
Next, UAACAGGGGGCCACAGCAGAAGCGUCCACGUCGCAGCCCCUGUCAGAUUCUGGUGAAUCGGCGAAUUCUGCUGUAUAUCUC: 0.3; UAACAGGGGGCCACAGCAGAAGCGUCCACGUCGCAGCCCCUGUCAGAUUCUGGUGAAUCUGCGAAUUCUGCUGUAUAUCUU: 0.5; UAACAGGGGGCCACAGCAGAAGCGUCCACGUCGCAGCCCCUGUCAGAUUCUGGUGAAUCUGCGAAUUCUGCUGUAUAUCUA: 0.63.
As for UAACAGGGGGCCACAGCAGAAGCGUCCACGUCGCAGCCCCUGUCAGAUUCUGGUGAAUCUCCGAAUUCUGCUGUAUAUCUC, the self-cleavage turned out to be 0.25.
As for UAACAGGGGGCCACAGCAGAAGCGUCCACGUCGCAGCCCCUGUCAGAUUCUGGUGAAUCUUCGAAUUCUGCUGUAUAUCUC, the figure is 0.35.
